From patent US20060234208A1, “Novel mechanism for hiv-1 entry into host cells and peptides inhibiting this mechanism” (priority 2002, published 2006)
Numbering of substitutions follows the chain as printed.

Assays:
[1] = target: TAT present in the viral supernatant of HIV-1 Ba-L (HIV-1 strain Ba-L); experiment: cell-based or functional assay
[2] = target: recombinant TAT86 III B (rTAT) (HIV-1 strain III B) (UniProt P04608)
recombinant TAT protein = target: T1, recombinant TAT protein (Human immunodeficiency virus type 1 group M subtype B, UniProt P69697, G61N/P58A/P59H/S77P/V67A); experiment: Binding of selected phage to rTAT-coated microwells; design: species or system HIV-1; conditions: single phage clones; BSA and insertless phage FdTet as negative controls
T1 construct: TAT86 (full-length); purchased The Centralized facility for AIDS Reagents, National Institute for Biological Standards and Controls (donor Immunodiagnostic)
From the text: For this assay, we have tested single phage clones for binding rTAT-coated microwells, using an unrelated protein, the Bovine Serum Albumin (BSA), as a negative control. The result is shown in the graph, where ‘Transducing Units’ is a parameter indicating the number of bound phage. Binding of the phage to an insertless phage, FdTet, is shown as a negative control.

HIV-1 Ba-L = experiment: Infection of PBMC with HIV-1 strain Ba-L (Example VI); type: cell-based; conditions: PHA-stimulated PBMCs, 2 h infection; versus 100 μM control peptide; SEQ 4 and 44: 100-50-10 μM, SEQ 127: 1 μM-100-10 nM
Description: This example is illustrated in FIG. 12. […] 4 (CSFINT), 44 (RDKVKK) and the complete gp120 region SEQ ID NO.127 (CSFNITTEIRDKVKK), where the entry experiment is performed with two strains of HIV-1 on peripheral blood cells (PBMCs) derived from healthy donors. In particular, strain III B uses CXCR4 as a co-receptor (X4) and Ba-L uses CCR5 (R5). […] In the graphs the percent inhibition of infection due to the peptides is shown, as compared to infection in the presence of 100 μM of a control peptide. PHA-stimulated PBMCs have been incubated with the peptides and immediately infected for 2 h at 37° C. This incubation time is sufficient to evaluate virus entry, by detecting the presence of early viral transcripts into the cytoplasm of infected cells. The peptide concentrations are as follows: SEQ ID NO.4 and 44: 100-50-10 μM; SEQ ID NO. 127: 1 μM-100-10 nM. In FIG. 12A is represented the effect of the peptides on the basal infection of both viral strains, in FIG. 1 2B the effect of the peptides on the infection following incubation with rTAT7 nM. A peptide-dependent inhibition of the basal infection by both HIV-1 strains is present already in the basal infection, reflecting the presence of TAT in the viral supernatants. In particular, these peptides are more efficient in reducing the basal infection by HIV-1 Ba-L than III B, reaching an inhibition from about 40% (SEQ ID NO. 44 and 127) to 70% (SEQ ID NO. 4). After cell incubation with 7 nM rTAT, the peptides have an enhanced efficacy in inhibiting the infection, and all of them show a dose-response effect, with similar outcomes on infections by both viral strains, confirming that their activity is related to the amount of membrane-bound TAT.
Cell cultures. U937 and C8166 cells were cultured in RPMI -1640 medium supplemented with 10% heat inactivated FCS; Phoenix cells were cultured in DMEM supplemented with 10% FCS; 293T cells were cultured in Iscove's medium supplemented with 10% FCS. […]
Infection with wild type HIV-1. […] Amplified DNA was analyzed by Southern blot hybridization with a ^32P-labeled probe, and quantified by densitometry. […]

[3] = system: TAT+/gp120-LV entry into C8166 cells; experiment: TAT+/gp120-LV entry into C8166 cells after co-culture with U937/TAT cells (Examples IV and V); type: cell-based, HIV-1; conditions: 4 h co-culture with U937/TAT cells; without protease inhibitors
Description: (§1) Transduction with HIV-1 -derived lentivirus. Vector stocks were prepared by transient co-transfection of 293T cells with the following combinations of plasmids: pRRL.hPGK.GFP.SIN-18+pCMV.DR8.2+pMD.G (Naldini et al. (1996), supra) (VSV-G-LV) or pEnvHXB (Huang et al., J. Virol. 72 (1998), 8952-8960) (TAT+/gp120-LV); pRRL.hPGK.GFP.SIN-18+pCMV.DR8.74 +pRSV-Rev ((Dull et al. (1998), supra)+pEnvHXB (TAT/gp120 -LV). Vector concentration was determined by HIV-1 p24 Core profile ELISA following the manufacturer's instructions. The entry experiments were conducted on 10^5 cells per well of a 48-well plate in the presence of 8 μg/ml polybrene. The number of GFP-positive cells was analysed by FACS.

[4] = system: TAT+/gp120-LV entry into C8166 cells; experiment: Effect of rTAT pre-incubation on TAT+/gp120-LV entry into C8166 cells; type: cell-based, HIV-1; conditions: C8166 cells pre-incubated with rTAT for 15 min
Description: This effect is reverted if the cells are pre-treated with Heparanase Ill. […] Again, this effect is reverted by pre-treating the cells with Heparanase IlI (FIG. 3B). To investigate the specificity of this effect, we have used lentiviral vectors pseudotyped with a different envelope, i.e. Vescicular Stomatitis Virus-G (VSV-G-LV), to transduce C8166 cells after co-culture with U937/TAT cells for different incubation times, or with the different U937/TAT clones for 2 h. […] Therefore, the increase in cell entry is strictly dependent not only on surface-bound TAT, but also on the presence of gp120. […]
as §1

[5] = system: TAT/gp120-LV entry into C8166 cells; experiment: Effect of GST-TAT variants on TAT-/gp120-LV entry into C8166 cells; type: cell-based, HIV-1; conditions: C8166 cells incubated with 7 μM GST-TAT variant for 15 min; compared to wild-type TAT86
Description: as §1

gp120 = gp120 (Human immunodeficiency virus type 1 group M subtype B, UniProt P03375); conditions: GST-fusion TAT HXB2 variants
From the text: The following TATHXB2 variants were produced as GST-fusion proteins as described (Mitola, S. et al. Identification of specific molecular structures of human immunodeficiency virus type 1 TAT relevant for its biological effects on vascular endothelial cells. J Virol 74, 344-53 (2000): TAT86 (full-length), TAT72 (product of TAT first exon), TATBasMut (with the mutations R-49,52,53,55,56,57-A), TATCysMut (with the mutations C-22,25,27-A.

soluble peptide SEQ ID NO. 44 (RDKVKK)
percent inhibition of basal infection of PBMCs by HIV-1 Ba-L [1]: 40%

recombinant gp120 III B protein
Kd [2]: 8 nM

CPDRKKKVVMVC [SEQ ID NO.3, phage insert selected from CX10C Phage Display library, tested as phage]
phage binding to rTAT-coated microwells (recombinant TAT protein): specifically bind recombinant TAT protein

RDKVKK [SEQ ID NO. 44]
percent inhibition of basal infection (HIV-1 Ba-L): about 40%
blocking of virus entry at a concentration lower than 100 μM [3]: inefficient

soluble peptide SEQ ID NO. 4 (CSFNIT)
percent inhibition of basal infection of PBMCs by HIV-1 Ba-L [1]: 70%

CTVECYFNCTPTC [SEQ ID NO.2, phage insert selected from CX3CX3CX3C Phage Display library, tested as phage]
phage binding to rTAT-coated microwells (recombinant TAT protein): specifically bind recombinant TAT protein

CSFNITTEIRDKVKK [SEQ ID NO. 127, Synthetic peptide corresponding to the selected region of gp120]
percent inhibition of basal infection (HIV-1 Ba-L): about 40%

CSFNIT [SEQ ID NO. 4]
percent inhibition of basal infection (HIV-1 Ba-L): ~70%
blocking of virus entry at a concentration lower than 100 μM [3]: inefficient

B1: rTAT: recombinant TAT (TAT86 III B) protein (protein)
chain: MIPVDPRLEPWKHPGSQPKTACTNCYCKKCCFHCQVCFITKALGISYGRKKRRQRRRAHQNSQTHQASLSKQPTSQPRGDPTGPKE
increase of TAT+/gp120-LV entry [4]: dose-response effect in increasing TAT+/gp120-LV entry

B2: TATBasMut: GST-fusion TAT HXB2 variant with the mutations R-49,52,53,55,56,57-A (protein, UniProt P04608 1-86, looked up, variant R49A R52A R53A R55A R56A R57A)
Protein Tat: B1 chain with I2E, R49A, R52A, R53A, R55A, R56A, R57A
modifications: GST fusion
notes: GST-fusion TAT HXB2 variant with the mutations R-49,52,53,55,56,57-A
enhancement of TAT/gp120-LV entry into the cells [5]: ineffective in enhancing virus entry
binding to rgp120-coated microwells (gp120): retaining the ability to bind gp120

B3: TATCysMut: GST-fusion TAT HXB2 variant with the mutations C-22,25,27-A (protein, UniProt P04608 1-86, looked up, variant C22A C25A C27A)
Protein Tat: B1 chain with I2E, C22A, C25A, C27A
modifications: GST fusion
notes: GST-fusion TAT HXB2 variant with the mutations C-22,25,27-A
enhancement of TAT/gp120-LV entry into the cells [5]: could enhance vector entry
